± gives the uncertainty stated by the source.
Assay: protein stability index of a GFP-peptide fusion (yeast GPS) (PSI 1-4); higher = more stable; sorted into four equal gates, so the index is relative within each strain
Outline: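 For each peptide, the protein stability index sums the read frequency in every gate after multiplying it by the gate number. Read frequencies came from plasmids that were PCR-amplified from each gate and Illumina-sequenced, with reads assigned to strains by barcodes. The gates were four equal bins of GFP/Cherry fluorescence ratio applied to mid-log yeast in leucine-free medium carrying a pooled library of tiled 17-residue yeast protein peptides fused downstream of GFP on a Cherry-expressing plasmid.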

| Sequence | protein stability index (doa10∆) | protein stability index (pdr5∆) | protein stability index (san1∆) | protein stability index (ubr1∆) |
| --- | --- | --- | --- | --- |
| QVASIIESFVELGVSIY [NUT2] | 2.77 ± 0.13 | 2.98 ± 0.17 | 2.2 ± 0.13 | 1.76 ± 0.045 |
| KDNDKNLKFLKNKDSLV [SRB4] | 3.48 ± 0.094 | 3.21 ± 0.12 | 3.28 ± 0.072 | 3.34 ± 0.068 |
| QANIQLYSIREDYELSP [PRE1] | 2.96 ± 0.1 | 2.82 ± 0.093 | 3.01 ± 0.074 | 3.46 ± 0.11 |
| CAYTGTGDVLLIQDLLH [RPN1] | 3.01 ± 0.059 | 2.88 ± 0.064 | 2.75 ± 0.065 | 2.8 ± 0.052 |
| VAGLEDKFRKACSSSGR [SIR3] | 3.16 ± 0.14 | 2.93 ± 0.095 | 2.98 ± 0.18 | 2.9 ± 0.056 |
| HPVSLISFAIYSALNST [RRP42] | 1.53 ± 0.051 | 1.55 ± 0.058 | 1.62 ± 0.089 | 1.84 ± 0.045 |
| ALNGIDINTVNTNLMNG [GRR1] | 3.29 ± 0.051 | 3.2 ± 0.052 | 3.08 ± 0.042 | 3.1 ± 0.045 |
| TLFSSIEPQVINYLALN [ECM29] | 2.31 ± 0.07 | 2.64 ± 0.096 | 2.29 ± 0.21 | 2.09 ± 0.082 |
| EITVVKPDSDIVALSSE [PRE6] | 3.1 ± 0.058 | 3.23 ± 0.051 | 3.24 ± 0.04 | 3.3 ± 0.049 |
| KFFRVKYENKISTVIEV [SMC3] | 1.35 ± 0.13 | 1.2 ± 0.11 | 1.09 ± 0.28 | 1.12 ± 0.087 |
| EWNGKSFQKKSNDKVVE [ISW2] | 3.14 ± 0.054 | 3.34 ± 0.058 | 3.01 ± 0.049 | 3.08 ± 0.064 |
| LITSEMFDAFVSFYFED [SIN4] | 1.94 ± 0.1 | 2.59 ± 0.061 | 1.87 ± 0.093 | 2.93 ± 0.081 |
| RKYSFNYSSLPSPYKTT [YAR002W/NUP60] | 2.56 ± 0.054 | 2.8 ± 0.05 | 2.71 ± 0.058 | 2.71 ± 0.045 |
| QMSDKHATVVPPEEFSN [SRB7] | 2.98 ± 0.05 | 2.88 ± 0.056 | 2.71 ± 0.059 | 2.86 ± 0.047 |
| PTSPAYSPTSPSYSPTS [RPO21] | 2.89 ± 0.051 | 2.86 ± 0.045 | 2.73 ± 0.037 | 2.9 ± 0.035 |
| NECQRLQNIVMDCTKEE [YIL149C/MLP2] | 2.61 ± 0.093 | 3.47 ± 0.11 | 3.66 ± 0.2 | 3.4 ± 0.12 |
| RLDNLQDIKKAKRVENF [DSN1] | 1.52 ± 0.059 | 1.42 ± 0.039 | 2.56 ± 0.074 | 2.56 ± 0.048 |
| YTETDPAKVAEEGINKF [SRP54] | 3.05 ± 0.1 | 3.3 ± 0.097 | 2.9 ± 0.089 | 3.04 ± 0.095 |
| TVIKFRAGVCEYNEDSR [RPN13] | 2.26 ± 0.12 | 1.96 ± 0.071 | 1.8 ± 0.13 | 2.77 ± 0.07 |
| TRYNRDYMLSMANIPER [SNU114] | 1.48 ± 0.073 | 2.44 ± 0.055 | 2.62 ± 0.1 | 1.43 ± 0.047 |
| KSAYANTEKDYKMVQEQ [SMC2] | 2.95 ± 0.053 | 3.02 ± 0.066 | 3.19 ± 0.04 | 3.21 ± 0.049 |
| PILAPSVKDYRPAEETE [RPS3] | 3 ± 0.056 | 3.13 ± 0.051 | 3.174 ± 0.03 | 2.92 ± 0.04 |

| Sequence | protein stability index (doa10∆) | protein stability index (pdr5∆) | protein stability index (san1∆) | protein stability index (ubr1∆) |
| --- | --- | --- | --- | --- |
| SVHHARVLITQRHIAVG [RPS9A] |  | 1.31 ± 0.14 |  |  |
| ELNEEKKRLMDIDDELN [SMC2] | 3.23 ± 0.095 | 3.42 ± 0.14 | 2.69 ± 0.15 | 3.51 ± 0.069 |
| NKKLIKKLSKKYNAFIA [RPL1A] | 1.45 ± 0.048 | 1.94 ± 0.052 | 1.45 ± 0.12 | 1.88 ± 0.049 |
| IQFLTIGAGVPSLEVAS [FAS1] | 1.18 ± 0.037 | 1.24 ± 0.056 | 1.2 ± 0.079 | 1.11 ± 0.039 |
| VLCLTRSSYMLELVNTP [YCG1] | 1.58 ± 0.059 | 2.03 ± 0.2 | 1.77 ± 0.099 | 1.98 ± 0.087 |
| PLYARYINVNPQEETIT [ECM29] | 2.74 ± 0.07 | 2.85 ± 0.059 | 2.9 ± 0.067 | 2.69 ± 0.041 |
| ATIIGIISTAIADSTHV [ECM29] | 1.74 ± 0.073 | 1.65 ± 0.061 | 1.95 ± 0.066 | 1.51 ± 0.04 |
| SEISDGKLKRCSRCGSV [SIN4] | 3.33 ± 0.17 | 3.4 ± 0.14 | 3.36 ± 0.11 | 3.59 ± 0.11 |
| RDVMCTDGVIGSRTTTN [RPO31] | 3.2 ± 0.11 | 3.48 ± 0.084 | 3.16 ± 0.084 | 3.16 ± 0.052 |
| NSNDSVFVGSGKGTGKT [BRR2] | 3.36 ± 0.14 | 3.27 ± 0.16 | 3.32 ± 0.1 | 3.33 ± 0.11 |
| KESAVISKQKSKLDYIF [SMC1] | 3.04 ± 0.18 | 2.81 ± 0.11 | 3.05 ± 0.11 | 2.98 ± 0.12 |
| KRIKPNTEITQKSSKEN [ECM29] | 2.81 ± 0.081 | 2.9 ± 0.074 | 2.98 ± 0.067 | 3.14 ± 0.056 |
| KGTEASNDIIDKPYLLR [YDL116W/NUP84] | 3.33 ± 0.09 | 3.23 ± 0.078 | 3.34 ± 0.1 | 2.76 ± 0.11 |
| AKRNLPHTTLVNECIAQ [CDC53] | 2.37 ± 0.072 | 2.48 ± 0.059 | 2.65 ± 0.067 | 2.68 ± 0.04 |
| LVEKVYARFKNDFFPGE [ITC1] | 3.47 ± 0.091 | 3.36 ± 0.1 | 3.05 ± 0.058 | 3.25 ± 0.077 |
| LNTLFNPVTLNEDSKAF [NUT1] | 2.57 ± 0.062 | 1.84 ± 0.057 | 1.65 ± 0.091 | 1.92 ± 0.043 |
| QEQGSFQHILRLLNTNV [RPS18A] | 2.97 ± 0.045 | 3.06 ± 0.045 | 2.91 ± 0.037 | 3.03 ± 0.035 |
| LAKSKASLTAARTAANS [RPN6] | 2.5 ± 0.18 | 2.69 ± 0.12 | 2.83 ± 0.097 | 2.7 ± 0.051 |
| VDVKPKSPKERELEERA [RPC25] |  | 3.07 ± 0.17 |  | 3.31 ± 0.13 |
| KTFKNPKYESLKLEYYN [RPN5] | 2.11 ± 0.083 | 1.49 ± 0.089 | 1.09 ± 0.23 | 1.25 ± 0.058 |
| DEEASYKLGKVKKVQLG [RPS4A] | 2.96 ± 0.1 | 3.1 ± 0.069 | 2.9 ± 0.063 | 2.98 ± 0.061 |
| VNAITVAQQQVQRQIEQ [SNF5] |  | 3.14 ± 0.2 |  | 3 ± 0.17 |

Source: the supplement of paper PMC9732359
